Results taken from patent US20240124590A1 (ULTRAHUMAN EIGHT, published 2024).
Read-outs that look alike come from different tables or passages of the source.

Key:
[1] = biological target: T1, human PD1 expressed on cells (human, UniProt Q15116 25-288); assay: cell-based or functional assay
[2] = biological target: T1, human PD1 expressed on cells; assay: flow cytometry, PD1 CHO-K1 cells
Protocol: (§1) Purified IgGs were tested in FACs for binding to human and cyno PD1 expressed on CHO-K1 stable cell lines and CHO-K1 wild-type cells. […] Binding of IgGs was detected with a mouse anti-human IgG conjugated to FITC. Results were analyzed by examining the Mean Fluorescence Intensity (MFI) of 10000 cells per sample in the BL-1 channel detector of a flow cytometer (Attune™ NxT Acoustic Focusing Cytometer, Invitrogen/ThermoFisher Scientific).
(§2) Antibodies to PD1 were analysed for concentration-dependent binding at the cell surface via flow cytometry. Initial analyses were performed on CHO cells stably-transfected with human or cyno PD1.

[3] = biological target: T2, cyno PD1 expressed on CHO-K1 cells (cynomolgus monkey, UniProt Q15116 25-288 (human entry)); assay: flow cytometry, PD1 CHO-K1 cells
T2 construct: also called cyno PD1+ CHO cells
T2 chain: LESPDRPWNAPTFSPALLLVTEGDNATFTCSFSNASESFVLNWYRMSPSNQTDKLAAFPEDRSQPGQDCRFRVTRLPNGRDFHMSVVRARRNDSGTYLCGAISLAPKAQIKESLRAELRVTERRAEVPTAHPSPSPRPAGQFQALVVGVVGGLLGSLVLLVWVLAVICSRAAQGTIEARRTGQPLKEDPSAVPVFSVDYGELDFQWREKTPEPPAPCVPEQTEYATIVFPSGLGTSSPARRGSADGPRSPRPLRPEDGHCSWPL
Protocol: as §1, §2

[4] = biological target: T3, cynomolgus monkey PD1 His tag (monomeric) (cynomolgus monkey, UniProt Q15116 25-170 (human entry), limits assumed); assay: SPR (Biacore); cyno KD against human KD
T3 construct: Soluble monomeric analyte; whole entry named; also called monomeric cyno PD1; not shown: His tag
T3 chain: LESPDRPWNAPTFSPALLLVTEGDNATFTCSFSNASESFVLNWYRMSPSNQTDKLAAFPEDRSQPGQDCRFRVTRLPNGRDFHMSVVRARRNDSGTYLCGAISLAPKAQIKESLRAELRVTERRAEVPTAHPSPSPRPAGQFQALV
Protocol: (§3) Affinity (KD) of purified IgGs was determined via SPR with antigen in-solution on a Biacore 3000 (GE). A mouse anti-human antibody (CH1 specific) was immobilized on a CM5 Sensor Chip to a level of 2000 RU in acetate buffer at pH 4.5 using amine coupling following the Wizard instructions for two channels. One channel was used for background signal correction. The standard running buffer HBS-EP pH 7.4 was used. Regeneration was performed with a single injection of 10 μl of 10 mM Glycine at pH 1.5 at 20 μl/minute. IgG samples were injected for 2 minutes at 50 nM at 30 μl/min followed by and off-rate of 60 seconds. […] The obtained sensorgrams were analysed using the Biacore 3000 evaluation (BIAevaluation) software. The KD was calculated by simultaneous fitting of the association and dissociation phases to a 1:1 Langmuir binding model.
(§4) Biacore analyses of binding affinity was performed for all IgGs to solution-phase, monomeric human and cyno PD1 proteins.

[5] = biological target: T4, human PD1 human Fc tagged recombinant protein (human, UniProt Q15116 25-170, limits assumed); assay: direct ELISA, IgG1null on coated PD1-Fc
T4 construct: also called huPD1-Fc; huPD-1-Fc; not shown: human Fc tag
Protocol: (§5) Binding and cross-reactivity of the lead panel to the recombinant proteins was initially assessed by binding ELISA. The human PD1 human Fc tagged recombinant protein and the cynomolgus monkey PD1 human Fc tagged recombinant protein were coated to the surface of MaxiSorp™ flat-bottom 96 well plate at 1 μg/ml. […] The Fabs were detected using mouse anti-c-myc antibody followed by donkey anti-mouse IgG conjugated to horseradish peroxidase. The IgGs were detected using the mouse anti-human IgG conjugated to horseradish peroxidase. Binding signals were visualized with 3,3′,5,5′-Tetrannethylbenzidine Substrate Solution (TMB) and the absorbance measured at 450 nm.
(§6) The purified IgGs described above were then tested for binding to human and cyno PD1-Fc in direct titration ELISA format. […] As the ELISA EC50 values for directly binding IgGs are strongly influenced by avidity, rather than true 1:1 binding affinity, we then proceeded to perform higher-sensitivity, solution-phase epitope competition and Biacore binding affinity determinations, as outlined below.

[6] = biological target: T5, cynomolgus monkey PD1 human Fc tagged recombinant protein (cynomolgus monkey, UniProt Q15116 25-170 (human entry), limits assumed); assay: direct ELISA, IgG1null on coated PD1-Fc
T5 construct: also called cyPD1-Fc; cyPD-1-Fc; not shown: human Fc tag
T5 chain: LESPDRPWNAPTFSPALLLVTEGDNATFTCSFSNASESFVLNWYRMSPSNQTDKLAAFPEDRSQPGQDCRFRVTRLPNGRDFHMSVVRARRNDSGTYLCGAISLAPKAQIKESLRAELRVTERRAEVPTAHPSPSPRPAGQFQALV
Protocol: as §5, §6

[7] = biological target: T4, human PD1 human Fc tagged recombinant …; assay: direct ELISA, IgG1null on coated PD1-Fc; remark: listed apart in the source
Protocol: as §5, §6

[8] = biological target: T5, cynomolgus monkey PD1 human Fc tagged …; assay: direct ELISA, IgG1null on coated PD1-Fc
Protocol: as §5, §6

[9] = biological target: T6, biotinylated human PD1-His/AviTag (human, UniProt Q15116 25-170, limits assumed, biotinylated); assay: Alphascreen competition vs IgG1-Mab005 (humanized)
T6 construct: Alphascreen antigen; whole entry named; also called biotinylated monomeric human PD1; not shown: His/AviTag
Protocol: The AlphaScreen assay (Perkin Elmer) was performed in a 25 μl final volume in 384-well white microtiter plates (Greiner). The reaction buffer contained 1×PBS pH 7.3 (Oxoid, Cat. nr. BRO014G) and 0.05% (v/v) Tween® 20 (Sigma, Cat. nr. P9416). Purified IgG samples were titrated in three fold serial dilutions starting at 500 nM final concentration and incubated with biotinylated human PD1-His/AviTag at 0.6 nM final concentration for 20 minutes at room temperature. […] Followed by addition of the Streptavidin Donor beads at 20 μg/ml (final concentration) and incubation for 30 minutes at room temperature. The emission of light was measured in the EnVision multilabel plate reader (Perkin Elmer) and analysed using the EnVision manager software. Values were reported as Counts Per Second (CPS) and corrected for crosstalk.

[10] = biological target: T7, human PD1 His tagged (monomeric) (human, UniProt Q15116 25-170, limits assumed); assay: SPR (Biacore), IgG captured, monomeric PD1-His analyte
T7 construct: Soluble monomeric analyte; whole entry named; also called monomeric human PD1; not shown: His tag
Protocol: as §3, §4

[11] = biological target: T3, cynomolgus monkey PD1 His tag …; assay: as above
Protocol: as §3, §4

T7 sequence (Q15116 25-170 limits assumed): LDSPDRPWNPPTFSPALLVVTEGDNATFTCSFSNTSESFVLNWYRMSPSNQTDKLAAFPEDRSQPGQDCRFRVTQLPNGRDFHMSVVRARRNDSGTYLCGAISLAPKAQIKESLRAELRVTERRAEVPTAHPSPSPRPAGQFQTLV
T4 sequence (Q15116 25-170 limits assumed): as above
T1 sequence (Q15116 25-288 limits assumed): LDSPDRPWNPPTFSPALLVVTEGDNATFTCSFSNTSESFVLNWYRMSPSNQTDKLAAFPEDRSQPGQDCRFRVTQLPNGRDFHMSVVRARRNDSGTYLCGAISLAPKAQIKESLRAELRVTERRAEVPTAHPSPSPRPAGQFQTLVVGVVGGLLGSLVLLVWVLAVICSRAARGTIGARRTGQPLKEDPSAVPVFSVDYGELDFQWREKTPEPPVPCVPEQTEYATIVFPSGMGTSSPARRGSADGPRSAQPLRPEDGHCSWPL
T6 sequence (Q15116 25-170 limits assumed): as the sequence (Q15116 25-170 limits assumed) above

EC50 (ng/ml), IgG1null blockade of human PD1/PD-L1 [1]: 285 ng/mL
EC50 [2]: 2.32 nM
EC50 [3]: 6.53 nM
human/cyno affinity differential (fold) [4]: 8 fold
EC50 [5]: 0.114 nM
EC50 [6]: 0.132 nM
EC50 [7]: 0.137 nM
EC50 [8]: 0.152 nM
IC50 [9]: 2.14 nM
Kd [10]: 4 nM
koff [10]: 0.00047 s⁻¹
kon [10]: 120000 M⁻¹ s⁻¹
Kd [11]: 32 nM
koff [11]: 0.0028 s⁻¹
kon [11]: 88000 M⁻¹ s⁻¹
B1: IgG1-Mab005 (humanized) (antibody, V domains shown)
VH: EVQLVESGGGLVQPGGSLRLSCAASGFTFSSYMMSWVRQAPGKGLEWVATISGGGANTYYPDSVKGRFTISRDNAKNSLYLQMNSLRAEDTAVYYCARQLYYFDYWGQGTTVTVSS
VL: DIQMTQSPSSLSASVGDRVTITCLASQTIGTWLTWYQQKPGKAPKLLIYTATSLADGVPSRFSGSGSGTDFTLTISSLQPEDFATYYCQQVYSIPWTFGGGTKVEIK
notes: tested as human IgG1null (IgG1 with L234A, L235A, G237A) with human Ckappa; also called Mab005-IgG1 (humanized); Mab005-IgG1 (hum)
